# Test results from US20250304658A1.
# “And” between values parts separate entries of the source, which are not always exact repeats. Equal entries are not always repeated. Where two headings read alike, the source gives them in different places.
# Tests used:
# [1] = target: BK virus VP1 protein, genotype I (BK virus) (UniProt P03088); test: cell-based or functional assay
# [2] = target: BK virus VP1 protein, genotype I (BK virus) (UniProt P03088); test: cell-based or functional assay; remark: listed apart in the source
Binder,"EC50, pseudovirus neutralization [2]",other results
"6H12 (antibody, V domains shown) VH: EVQLVESGGGLVQPGGSLRLSCAASGFTFSSYEMNWVRQAPGKGLEWVSYISSGGSSIKYADSVRGRFAFSRDNAENSVHLQMNSLRAEDTAVYYCARVGGSYYYSYAMDVWGQGTAVTVSS VL: DIQLTQSPSFLSASVGDRVTITCWASQDISSYLAWYQQKPGKAPKLLIYAASTLQSGVPSRFTGSGSGTEFTLTISSLQPEDFATYYCQQPHNSPFSFGPGTKVDVK",3.9 pM,"EC50, pseudovirus neutralization (mAb mixed with irrelevant isotype matched mAb M2) [1]: 0.96 pM"
"11D12 (antibody, V domains shown) VH: EVQLVESGGGLVQPGGSLRLSCAASGFTFSSYEMNWVRQAPGKGLEWVSYISSGGSSIKYADSVRGRFTFSRDNAENSVFLQMNSLRGEDTAVYYCARVGGSYYYSYAMDVWGQGTAVTVSS VL: DIQLTQSPSFLSASVGDRVTITCWASQDISSYLAWYQQKPGKAPKLLIYAASTLQSGVPSRFSGSGSGTEFTLTISSLQPEDFATYYCQQPNNYPFSFGPGTKVDVK",10.9 pM,
"7H8 (antibody, V domains shown) VH: EVQLLESGGGLVQPGGSLRLSCAASGFAFHTYDMTWVRQAPGKGLEWVSGVVGSGINTYYADSVKGRFTISRDNSKSTLYLQMNSLRAEDTAVYYCAKDSSSWFSLHYWGQGTLVTVSS VL: DIQMTQSPSTLSASVGDRVTITCRASQSISNWLAWYQQKPGKAPKLLIYKASSLESGVPSRFSGSGSGTDFTLTISSLQPDDFASYYCQQYRSYAYTFGQGTKLEIT",59.6 pM,
"7A4 (antibody, V domains shown) VH: QVQLVESGGDLVKPGGSLRLSCVASGFTFSDYYMNWIRLPPGKGLEWISYIDSSAGAIYYADSVKGRFTVSRDDAKNSLFLHMNSLRADDTAVYYCVRERRDGHKIFDYWGPGTLVTVSS VL: DIVMTQSPDSLAVSLGERATINCKSSQNILYSSNNKNYLAWYQQKAGQPPKLLIFWSSIRESGVPDRFSGSGSGTDFTLTISSLQAEDVAVYYCQQYYSSPYNFGRGTTLEIK",9.1 pM,
"2H1 (antibody, V domains shown) VH: QVQLVESGGDLVKPGGSLRLSCVASGFTFSDYYMNWIRLPPGKGLEWISYIDSSAGAIYYADSVKGRFTVSRDDAKNSLFLHMNSLRADDTAVYYCARERRDGHKIFDCWGPGTLVTVSS VL: DIVMTQSPDSLAVSLGERATINCKSSQNILYSSNNKNYLAWYQQKTGQPPKLLIFWSSTRESGVPDRFSGSGSGTDFTLTISSLQAEDVAVYYCQQYYSSPYNFGRGTTLEIK",20.2 pM and 41.8 pM,
"2F7 (antibody, V domains shown) VH: QVQLVESGGGLVKPGGSLRLSCVASGFTFSDYYMNWIRLPPGRGLQWISYIDSSAGAIYYADSVKGRFTVSRDDAKNSLYLQMNSLRADDTAVYYCARERRDGHKIFDWWGQGTLVTVSS VL: DIVMTQSPDSLAVSLGERATINCKSSQNILYTSNNKNYLGWYQQKAGQPPKLLIYWSSTRNSGVPDRFSGSGSGTDFTLTISSLQAEDVAVYYCHQYYSSPYTFGQGTNLEIK",52.5 pM,
"8D10 (antibody, V domains shown) VH: QVHLVESGGDLVKPGGSLRLSCVASGFTFSDYYMNWIRLPPGKGLEWISYIDSSAGAIYYADSVKGRFTVSRDDAKNSMFLHMNSLRADDTAVYYCARERRDGHKIFDYWGPGTLVTVSS VL: DIVMTQSPDSLAVSLGERATINCKSSQNILYSSNNKNYLAWYQQKAGQPPKLLIFWSSTRESGVPDRFSGSGSGTDFTLTISSLQAEDVAVYYCQQYYSSPYNFGRGTTLEIK",62.9 pM,
"1H10 (antibody, V domains shown) VH: QVHLVESGGDLVKPGGSLRLSCVASGFTFSDYYMNWIRMPPGKGLEWISYIDSSAGAIYYADSVKGRFTVSRDDAKNSLFLHMNNLRADDTAVYYCARERRDGHKIFDCWGPGTLVTVSS VL: DIVMTQSPDSLAVSLGERATINCKSSQNILYSSNNKNYLAWYQQKAGQPPKLLIFWSSTRESGVPDRFSGSGSGTDFTLTISSLQAEDVAVYYCQQYYSSPYNFGRGTTLEIK",68.4 pM,
"9B4 (antibody, V domains shown) VH: QVQLVESGGDLVKPGGSLRLSCVASGFTFSDYYMNWIRLPPGKGLEWISYIDSSAGAIYYADSVKGRFTVSRDDAKNSLFLHMNSLRADDTAVYYCARERREGHKIFDFWGPGTLVTVSS VL: DIVMTQSPDSLALSLGERATINCKSSQNILYSSNNKNYLACYQQKAGQPPKLLIFWSSTRESGVPDRFSGSGSGTDFTLTISSLQAEDVAVYYCQQYYSSPYNFGRGTTLEIK",72.5 pM,
"8A11 (antibody, V domains shown) VH: QVQLVESGGDLVKPGGSLRLSCVASGFTFSDYYMNWIRLPPGKGLEWISYIDSSAGATYYADSVKGRFTVSRDDAKNSLFLHMNSLRAEDTAVYYCARERRSGHKIFDCWGPGTLVTVSS VL: DIVMTQSPDSLAVSLGERATINCKSSQNILYSSNNKNYLAWYQQKAGQPPKLLIFWSSTRESGVPDRFSGSGSGTDFTLTISSLQAEDVAVYYCQQYYSSPYNFGRGTTLEIK",108 pM,
"4F7 (antibody, V domains shown) VH: QVQLVESGGDLVKPGGSLRLSCVASGFTFSDYYMNWIRLPPGKGLEWISYIDSSAGAIYYADSVKGRFTVSRDDAKNSLFLHMNNLRADDTAVYYCARERRDGHKIFDCWGPGTLVTVSS VL: DIVMTQSPDSLAVSLGERATINCKSSQNILYSSNNKNYLAWYQQKAGQPPKLLIFWSSTRESGVPDRFSGSGSGTDFTLTISSLQAEDVAVYYCQQYYSSPYNFGRGTTLEIK",32.5 pM,
"5A8 (antibody, V domains shown) VH: QVQLVESGGDLVKPGGSLRLSCVASGFTFSDYYMNWIRLPPGRGLEWISYIDSSAGAIYYADSVKGRFTVSRDDAKKSLFLYMNSLRADDTAVYYCARERRDGHKIFDYWGPGTLVTVSS VL: DIVMTQSPDSLAVSLGERATINCKSSQNILYSSNNKNYLAWYQQKAGQPPKLLIFWSSTRESGVPDRFSGSGSGTDFTLTISSLQAEDVAVYYCHQYYSSPYNFGRGTTLEIK",20.1 pM,
"1E2 (antibody, V domains shown) VH: QVQLVESGGDLVKPGGSLRLSCVASGFTFSDYYMNWIRLPPGKGLEWVSYIDSSAGAIYYADSVRGRFTVSRDDAKNSLFLHMNSLRADDTAVYYCARERRDGHKIFDCWGPGTLVTVSS VL: DIVMTQSPDSLAVSLGERATINCKSSQNILYSSNNKNYLAWYQQKAGQPPKLLIFWSSTRESGVPDRFSGSGSGTDFTLTINSLQAEDVAVYYCQQYYSSPYNFGRGTTLEIK",59 pM,
"2B9 (antibody, V domains shown) VH: EVQLLESGGGLAQPGKSLRLSCAASGFTFSGFAMSWVRQAPGKGLEWVSGISGSGDITYYADSVKGRFTISRDNSKSTLYLQMNSLGAEDTAVYYCAKDPYNWNHGVYGMDVWGQGTTVTVSS VL: DIQMTQSPSSLSASVGDRVTITCRASQSISSYLNWYQQKPGKAPKFLIYGASSLQSGVPSRFSGSGSGTDFTLTISSLQPEDFAAYYCQQSFNAPLTFGGGTKVEIK",32.2 pM,"EC50, pseudovirus neutralization [1]: 4.2 pM; EC50, pseudovirus neutralization (mAb mixed with irrelevant isotype matched mAb M2) [2]: 2.77 pM"
"9G9 (antibody, V domains shown) VH: EVQLLESGGGLVQPGGSLRLSCAASGFTFHNYAMSWVRQAPGKGLEWVSGISGSGGTAYYADSVKGRFTISRDNSKNTLYLQMNSLRADDTALYYCAKDRFLEWVEGFDSWGQGTLVTVSS VL: DIQMTQSPSSLSASVGDRVTITCRASQSIGSFLIWYQQKPGKAPKLLIYAASSLQSGVPSRFSGSGSGTDFTLIISSLQPEDFATYYCQQSYNTPLTFGGGTKVEIK",4.7 pM,"EC50, pseudovirus neutralization (mAb mixed with irrelevant isotype matched mAb M2) [1]: 2.76 pM"
"15C10 (antibody, V domains shown) VH: EVQLLESGGGLVQPGGSLRLSCAASGFTFSSFAMSWVRQAPGKGLEWVSGISASGGTTNYADSVKGRFTISRDNSKNTLYLQMSSLRAEDTAEYYCAKDRFLEWVEGFDPWGQGILVTVSP VL: DIQMTQSPSSLSASVGDRVTITCRASQSIGRFLIWYQQKPGKAPKLLLYATSSLQSGVPARFTGSGSGTDFTLTIGSLQPEDFATYYCQQSYITPLTFGGGTKVEIK",9.4 pM,"EC50, pseudovirus neutralization [1]: 0.1 pM"
"14F5 (antibody, V domains shown) VH: EVQLLESGGGLVQPGGSLRLSCAVSGFTFSSFAMSWVRQAPGKGLEWVSGISASGGTTNYADSVKGRFTISRDNSKNTLYLQMSSLRAEDTAEYYCAKDRFLEWVEGFDPWGQGILVTVSP VL: DIQMTQSPSSLSASVGDRVTITCRASQSIGRFLIWYQQKPGKAPKLLLYATSSLQSGVPARFTGSGSGTDFTLTIGSLQPEDFATYYCQQSYITPLTFGGGTKVEIK",10.1 pM,
